Results reported in patent publication US20210253716A1.
Values belong to the binder of their own block, whether it stands above or below them.

Columns and labels:
[1] = target: human ACVR1 extracellular domain expressed with a C-terminal mouse IgG2a Fc tag (human); test: SPR (Biacore), mAb captured, 25 C
[2] = target: human ACVR1 extracellular domain expressed with a C-terminal mouse IgG2a Fc tag (human); test: SPR (Biacore), mAb captured, 37 C
[3] = target: mouse ACVR1 extracellular domain expressed with a C-terminal myc-myc-hexahistidine tag (mouse); test: SPR (Biacore), mAb captured, 25 C
[4] = target: mouse ACVR1 extracellular domain expressed with a C-terminal myc-myc-hexahistidine tag (mouse); test: SPR (Biacore), mAb captured, 37 C

Sequence of human ACVR1 extracellular domain expressed with a C-terminal mouse IgG2a Fc tag (human) (chain, as listed by the source limits assumed): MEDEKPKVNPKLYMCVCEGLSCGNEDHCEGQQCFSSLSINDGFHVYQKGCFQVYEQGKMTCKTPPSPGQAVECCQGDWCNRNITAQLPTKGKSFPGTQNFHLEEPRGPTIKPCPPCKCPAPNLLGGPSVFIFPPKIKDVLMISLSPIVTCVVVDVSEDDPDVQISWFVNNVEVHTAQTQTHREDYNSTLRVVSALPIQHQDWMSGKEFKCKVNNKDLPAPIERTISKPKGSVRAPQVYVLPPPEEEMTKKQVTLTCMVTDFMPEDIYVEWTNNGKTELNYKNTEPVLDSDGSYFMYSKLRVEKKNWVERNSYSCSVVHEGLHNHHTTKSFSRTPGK
Sequence of mouse ACVR1 extracellular domain expressed with a C-terminal myc-myc-hexahistidine tag (mouse) (chain, as listed by the source limits assumed): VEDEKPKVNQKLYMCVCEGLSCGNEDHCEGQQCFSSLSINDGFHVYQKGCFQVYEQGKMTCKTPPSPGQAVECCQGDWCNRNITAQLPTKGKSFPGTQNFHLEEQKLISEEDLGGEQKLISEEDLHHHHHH

- 100 nM Ag Bound (RU) [1]: 0 RU
- 100 nM Ag Bound (RU) [2]: 11 RU
B1: mAb29261 (antibody, human IgG4 S228P, kappa, V domains shown)
VH: EVQLVESGGNLVQPGGSLRLSCAASGFTFSNYAMSWVRQAPGKGLEWVSGITGNGINTYYSVSVKGRFTISRDNSKNTVFLQMNSLRAEDTAIYYCVKERGHSWFGDWFDPWGQGTLVTVSS
VL: DIQMTQSPSSLSASVGDRVTITCRASQGIRNDLGWYQQKPGKAPKRLIYAASSLQSGVPSRFSGSGSGTEFTLTISSLQPEDFATYYCLQHNSYPWTFGQGTKVEIKR

- 900 nM or 100 nM Ag Bound (RU) [3]: 5 RU
- 900 nM or 100 nM Ag Bound (RU) [4]: 5 RU
B2: mAb29266 (antibody, human IgG4 S228P, kappa, V domains shown)
VH: QVQLVESGGGVVQPGRSLRLSCEVSGFTFSNYGMHWVRQAPGKGLEWVAVVSYDGSNKYYTDSVKGRFTISRDNSKNTLSLQMNSLRAEDTAVYYCAKDRGITGTSGGVFDIWGQGTMVTVSS
VL: AIRMTQSPSSFSATTGDRVTITCRASQGISSHLAWYQQKPGKAPKFLIYVASTLQSGVPSRFSGSGSGTDFTLTISSLQSEDFATYYCQQYYSYPPTFGQGTKVEIKR
